In the assay the target is T1, prostate specific membrane antigen (human, UniProt Q04609 1-750).
T1 construct: whole, on cells; also called PSMA
Nature of the assay: Western blot, prostatic (seminal) fluid. On the procedure:
To confirm that antibodies E99, J415, J533, and J591 precipitate an identical band to the 7Ell antibody (i.e., PSMA), Western Blot analyses were performed. Seminal plasma (400 μg/lane) or LNCaP lysate were loaded into lanes of 12% SDS-PAGE gels. After electrophoresis, the gels are transferred to nitrocellulose membranes. The membranes were blocked with 5% dry milk/Tris-buffered saline-tween 20 (“TBST”) for 60 min at room temperature. After washing, the membranes were incubated with primary mAb for 60 min at room temperature. After repeat washing, the membranes were incubated with sheep anti-mouse-Ig-peroxidase 1/5000 in 5% dry milk/TEST for 60 min at room temperature. After repeat washing, the membranes were developed using a chemiluminescent tag designated “ECL” (Amersham Life Sciences, International, Arlington Heights, Ill.) according to the manufacturer's directions.
(In western blotting, separated proteins are transferred to a membrane and probed.)

T1 sequence (Q04609 whole entry): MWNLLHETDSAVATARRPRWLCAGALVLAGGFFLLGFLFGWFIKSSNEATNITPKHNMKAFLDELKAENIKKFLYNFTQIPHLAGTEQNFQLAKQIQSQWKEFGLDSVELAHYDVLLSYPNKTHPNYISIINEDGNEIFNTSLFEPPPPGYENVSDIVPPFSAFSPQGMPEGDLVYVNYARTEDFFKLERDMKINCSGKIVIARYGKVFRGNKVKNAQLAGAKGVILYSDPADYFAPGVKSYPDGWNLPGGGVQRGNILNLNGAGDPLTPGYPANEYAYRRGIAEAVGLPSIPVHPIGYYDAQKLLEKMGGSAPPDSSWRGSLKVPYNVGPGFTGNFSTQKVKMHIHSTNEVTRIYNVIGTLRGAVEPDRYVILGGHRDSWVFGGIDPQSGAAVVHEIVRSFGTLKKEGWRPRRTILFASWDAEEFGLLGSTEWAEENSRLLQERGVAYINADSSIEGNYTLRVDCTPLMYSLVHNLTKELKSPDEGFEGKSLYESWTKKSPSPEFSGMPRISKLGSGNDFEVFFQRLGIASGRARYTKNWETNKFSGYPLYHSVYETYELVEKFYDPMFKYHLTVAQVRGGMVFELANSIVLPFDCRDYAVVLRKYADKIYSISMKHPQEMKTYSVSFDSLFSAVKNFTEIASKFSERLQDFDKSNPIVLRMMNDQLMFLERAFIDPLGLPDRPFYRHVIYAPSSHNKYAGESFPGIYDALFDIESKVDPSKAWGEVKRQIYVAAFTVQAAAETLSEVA

B1: monoclonal antibody J591 (antibody, V domains shown)
VH: EVQLQQSGPELVKPGTSVRISCKTSGYTFTEYTIHWVKQSHGKSLEWIGNINPNNGGTTYNQKFEDKATLTVDKSSSTAYMELRSLTSEDSAVYYCAAGWNFDYWGQGTTLTVSS
VL: DIVMTQSHKFMSTSVGDRVSIICKASQDVGTAVDWYQQKPGQSPKLLIYWASTRHTGVPDRFTGSGSGTDFTLTITNVQSEDLADYFCQQYNSYPLTFGAGTMLDLK
notes: Gold-labeled in the electron microscopy; also called mAb J591; hybridoma ATCC HB-12126
Consider B1, for which the binding result is recorded as “binds”.

The values are drawn from patent US20030031673A1 (published 2003).
